# Assay results published in patent EP1410040B1.
# B1: His-tagged NCoA-1 aa 212-463 (protein)
# chain: MHHHHHHSSGLVPRGSGMKETAAAKFERQHMDSPDLGTDDDDKAMGYLWIQEACQRYEVMQCFTVSQPKSIQEDGEDFQSCLICIARRLPRPPAITGVESFMTKQDTTGKIISIDTSSLRAAGRTGWEDLVRKCIYAFFQPQGREPSYARQLFQEVMTRGTASSPSYRFILNDGTMLSAHTKCKLCYPQSPDMQPFIMGIHIIDREHSGLSPQDDSNSGMSIPRINPSVNPGISPAHGVTRSSTLPPSNNNMVSARVNRQQSSDLNSSSSHTNSSNNQGNFGCSPGNQIVANVALNQGQAGSLEHHHHHH
# Tests used:
# [1] = biological target: full length STAT6 (human) (UniProt P42226); assay: cell-based or functional assay
# Chain of UniProt P42226 (P42226 2-847): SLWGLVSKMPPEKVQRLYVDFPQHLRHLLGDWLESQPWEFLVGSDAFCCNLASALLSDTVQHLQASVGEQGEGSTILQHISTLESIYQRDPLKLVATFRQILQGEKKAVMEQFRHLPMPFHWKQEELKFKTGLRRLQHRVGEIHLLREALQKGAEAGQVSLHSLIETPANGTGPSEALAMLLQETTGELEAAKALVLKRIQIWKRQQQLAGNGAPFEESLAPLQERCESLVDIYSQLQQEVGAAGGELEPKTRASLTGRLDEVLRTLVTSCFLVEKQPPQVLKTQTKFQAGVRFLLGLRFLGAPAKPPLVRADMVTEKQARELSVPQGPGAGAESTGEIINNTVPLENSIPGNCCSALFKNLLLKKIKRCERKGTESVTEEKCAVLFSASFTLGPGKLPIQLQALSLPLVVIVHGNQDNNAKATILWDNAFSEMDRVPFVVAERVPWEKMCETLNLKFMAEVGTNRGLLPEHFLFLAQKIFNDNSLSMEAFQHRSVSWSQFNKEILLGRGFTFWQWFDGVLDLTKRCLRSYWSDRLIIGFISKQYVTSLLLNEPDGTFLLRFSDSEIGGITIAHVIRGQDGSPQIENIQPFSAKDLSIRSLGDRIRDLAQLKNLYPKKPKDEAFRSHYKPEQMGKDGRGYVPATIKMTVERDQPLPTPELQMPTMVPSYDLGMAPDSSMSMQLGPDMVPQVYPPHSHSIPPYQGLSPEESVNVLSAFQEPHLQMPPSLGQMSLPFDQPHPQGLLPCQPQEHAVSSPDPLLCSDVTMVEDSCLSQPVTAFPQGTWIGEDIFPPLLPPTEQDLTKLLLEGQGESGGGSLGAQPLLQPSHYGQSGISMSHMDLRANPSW
# [2] = biological target: GST-STAT6 aa 677-847 protein (human); assay: ELISA: 500 ng GST-STAT6 (677-847) coated, 250 ng His-NCoA-1 added, detected by Penta-His and anti-mouse-HRP; average of three experiments, s.d. 0,036
# Chain of GST-STAT6 aa 677-847 protein (human) (chain, as listed by the source limits assumed): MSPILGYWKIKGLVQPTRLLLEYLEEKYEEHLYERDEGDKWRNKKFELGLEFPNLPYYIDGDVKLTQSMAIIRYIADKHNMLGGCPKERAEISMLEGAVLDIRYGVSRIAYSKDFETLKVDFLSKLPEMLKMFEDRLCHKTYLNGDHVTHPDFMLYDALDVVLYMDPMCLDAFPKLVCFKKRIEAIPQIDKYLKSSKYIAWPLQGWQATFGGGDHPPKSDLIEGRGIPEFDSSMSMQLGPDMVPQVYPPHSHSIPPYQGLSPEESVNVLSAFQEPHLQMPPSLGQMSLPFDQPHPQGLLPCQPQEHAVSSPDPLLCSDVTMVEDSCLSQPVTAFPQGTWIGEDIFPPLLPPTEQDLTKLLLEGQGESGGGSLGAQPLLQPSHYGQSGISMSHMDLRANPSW
Molecule,IL-4 induced luciferase reporter gene expression (multimerized STAT6 response elements) in HepG2 cells [1] [fold],Extinction 493 nm [2]
"NCoA-1 (nuclear coactivator 1), full length (from UniProt P70365 2-1447)",< 3,–
B1,–,0.795
